From patent publication US20220273751A1, “GPCR HETEROMER INHIBITORS AND USES THEREOF” (GPCR THERAPEUTICS, INC., priority 2019, published 2022)

Biological target: T1, CXCR4-VC (CXCR4 fused with C-terminal fragment of Venus) (human)
T1 chain: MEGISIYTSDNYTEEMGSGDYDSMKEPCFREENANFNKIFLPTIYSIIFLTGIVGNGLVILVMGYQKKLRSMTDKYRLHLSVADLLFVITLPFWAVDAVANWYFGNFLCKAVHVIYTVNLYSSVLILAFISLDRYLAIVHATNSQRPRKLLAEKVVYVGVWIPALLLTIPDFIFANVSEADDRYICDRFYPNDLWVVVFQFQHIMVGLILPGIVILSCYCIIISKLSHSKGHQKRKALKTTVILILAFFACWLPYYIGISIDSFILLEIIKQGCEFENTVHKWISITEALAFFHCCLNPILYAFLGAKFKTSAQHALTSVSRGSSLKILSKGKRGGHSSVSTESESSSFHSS
Test: BiFC, U-2 OS cells co-transduced with adenoviruses (30 MOI each)
Conditions: remark: other sources report otherwise; scale: BiFC score =

B1: CXCR4-VN (CXCR4 fused with N-terminal fragment of yellow fluorescent protein Venus), P61072 1-352 (receptor, not shown: small tags and cut ends)
chain: MEGISIYTSDNYTEEMGSGDYDSMKEPCFREENANFNKIFLPTIYSIIFLTGIVGNGLVILVMGYQKKLRSMTDKYRLHLSVADLLFVITLPFWAVDAVANWYFGNFLCKAVHVIYTVNLYSSVLILAFISLDRYLAIVHATNSQRPRKLLAEKVVYVGVWIPALLLTIPDFIFANVSEADDRYICDRFYPNDLWVVVFQFQHIMVGLILPGIVILSCYCIIISKLSHSKGHQKRKALKTTVILILAFFACWLPYYIGISIDSFILLEIIKQGCEFENTVHKWISITEALAFFHCCLNPILYAFLGAKFKTSAQHALTSVSRGSSLKILSKGKRGGHSSVSTESESSSFHSS
modifications: here or on the partner: Venus N-terminal fragment (VN) fused to the receptor. Its letters are not given, so it is left out.; Venus C-terminal fragment (VC) fused to the receptor. Its letters are not given, so it is left out.
Which BiFC score does the source give for B1 here?
The BiFC score was 9.9.
